Experiments:
[1] = target: human CD123 on cells (human) (UniProt P26951); assay: cell-based or functional assay
[2] = target: human CD33 on cells (human) (UniProt P20138); assay: cell-based or functional assay
Sequence of human CD33 on cells (human) (P20138 18-364): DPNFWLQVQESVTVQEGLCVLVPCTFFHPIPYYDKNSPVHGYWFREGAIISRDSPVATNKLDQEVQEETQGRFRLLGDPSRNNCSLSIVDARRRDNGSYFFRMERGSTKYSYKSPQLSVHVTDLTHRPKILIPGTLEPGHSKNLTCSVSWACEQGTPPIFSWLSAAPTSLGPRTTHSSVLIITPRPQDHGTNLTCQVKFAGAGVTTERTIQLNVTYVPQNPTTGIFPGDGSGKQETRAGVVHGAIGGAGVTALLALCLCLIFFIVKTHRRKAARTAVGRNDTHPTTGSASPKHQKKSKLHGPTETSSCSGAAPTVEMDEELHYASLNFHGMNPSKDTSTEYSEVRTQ

Sequence of human CD123 on cells (human) (P26951 19-378 limits assumed): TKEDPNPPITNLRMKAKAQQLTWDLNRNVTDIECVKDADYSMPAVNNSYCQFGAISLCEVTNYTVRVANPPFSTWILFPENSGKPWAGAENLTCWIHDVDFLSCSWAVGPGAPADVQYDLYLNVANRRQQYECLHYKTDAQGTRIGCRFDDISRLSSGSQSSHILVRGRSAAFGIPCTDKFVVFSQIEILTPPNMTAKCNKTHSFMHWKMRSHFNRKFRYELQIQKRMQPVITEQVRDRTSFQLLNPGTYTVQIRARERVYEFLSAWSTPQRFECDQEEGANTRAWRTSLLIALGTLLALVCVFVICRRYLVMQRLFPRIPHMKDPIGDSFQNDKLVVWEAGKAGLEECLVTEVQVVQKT

Substance	% Lysis, human T cell mediated KG-1a cell killing [1]	EC50 (M), flow cytometry based human T cell mediated KG-1a cell killing, E:T 10:1 [1]	% Lysis, human T cell mediated U-937 cell killing [2]	EC50 (M), flow cytometry based human T cell mediated U-937 cell killing, E:T 10:1 [2]
CD123/CD3 DART MGD006 (bispecific antibody)	58%	3e-12 M	13%	8.9e-13 M
CD33/CD3 BiTE AMG 330 (bispecific antibody)	15%	8.7e-12 M	55%	1.1e-11 M

Source: US20240092919A1
